Data from the supplement of paper PMC10567573.

B1: FANCE (parent)
chain: AQVLMLGQILELPWKEETFLVLQS
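Further: lentivirally expressed fusions sorted by FACS into six bins by GFP to DsRed ratio, PSI derived from sequencing read proportions per bin multiplied by bin number.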

Variants of: B1
Assay: protein stability index of a GFP-peptide fusion (GPS, HEK-293T) (PSI 1-6); higher = more stable
Details: c terminus: a fixed tail appended
Variant AQVLQLGQILELPWKEETFLVLQS [M5Q] has a protein stability index of 1.76.
AQVLKLGQILELPWKEETFLVLQS [M5K] gave a protein stability index of 1.8.
AQVLCLGQILELPWKEETFLVLQS [M5C] gave a protein stability index of 1.57.
AQVLYLGQILELPWKEETFLVLQS [M5Y] showed a protein stability index of 2.58.
Work on AQVLSLGQILELPWKEETFLVLQS [M5S] yielded a protein stability index of 1.68.
Work on AQVLALGQILELPWKEETFLVLQS [M5A] yielded a protein stability index of 2.24.
Work on AQVLRLGQILELPWKEETFLVLQS [M5R] yielded a protein stability index of 1.78.
For AQVLDLGQILELPWKEETFLVLQS [M5D], the protein stability index was 1.95.
With AQVLMLGQILELPWKEEYFLVLQS [T18Y] the protein stability index was 2.29.
In the case of AQVLMLGQILELPWKEEHFLVLQS [T18H], the protein stability index is reported as 3.02.
AQVLMLGQILELPWKEEMFLVLQS [T18M] gave a protein stability index of 2.92.
Work on AQVLMLGQILELPWKEEAFLVLQS [T18A] yielded a protein stability index of 1.7.
In the case of AQVLMLGQILELPWKEERFLVLQS [T18R], the protein stability index is reported as 4.64.
In the case of AQVLMLGQILELPWKEELFLVLQS [T18L], the protein stability index is reported as 2.16.
AQVLMLGQILELPWKEEDFLVLQS [T18D] gave a protein stability index of 1.84.
Variant AQVLMLGQILELPWKEEFFLVLQS [T18F] has a protein stability index of 3.58.
For AQVLMLGQILELPWKEETFKVLQS [L20K], the protein stability index was 1.91.
Variant AQVLMLGQILELPWKEETFDVLQS [L20D] has a protein stability index of 1.6.
Variant AQVLMLGQILELPWKEETFWVLQS [L20W] has a protein stability index of 2.87.
For AQVLMLGQILELPWKEETFMVLQS [L20M], the protein stability index was 1.73.
AQVLMLGQILELPWKEETFPVLQS [L20P] showed a protein stability index of 1.94.
For AQVLMLGQILELPWKEETFHVLQS [L20H], the protein stability index was 2.03.
Work on AQVLMLGQILELPWKEETFRVLQS [L20R] yielded a protein stability index of 2.61.
Variant AQVLMLGQILELPWKEETFQVLQS [L20Q] has a protein stability index of 2.98.
With AQVLMLGQILELPWKEETFIVLQS [L20I] the protein stability index was 2.31.
In the case of AQVLMLGQILELPWKEETFTVLQS [L20T], the protein stability index is reported as 1.76.
Variant AQVLMLGQILELPWKEETFEVLQS [L20E] has a protein stability index of 2.24.
Variant AQVLMLGQILELPWKEETFNVLQS [L20N] has a protein stability index of 2.56.
With AQVLMLGQILELPWKEETFVVLQS [L20V] the protein stability index was 3.
Work on AQVLMLGQILELPWKEETFLVKQS [L22K] yielded a protein stability index of 2.14.
With AQVLMLGQILELPWKEETFLVQQS [L22Q] the protein stability index was 2.08.
With AQVLMLGQILELPWKEETFLVRQS [L22R] the protein stability index was 1.63.
AQVLMLGQILELPWKEETFLVSQS [L22S] showed a protein stability index of 1.13.
With AQVLMLGQILELPWKEETFLVTQS [L22T] the protein stability index was 1.61.
Work on AQVLMLGQILELPWKEETFLVHQS [L22H] yielded a protein stability index of 2.08.
AQVLMLGQILELPWKEETFLVDQS [L22D] showed a protein stability index of 1.49.
For AQVLMLGQILELPWKEETFLVEQS [L22E], the protein stability index was 2.
In the case of AQVLMWGQILELPWKEETFLVLQS [L6W], the protein stability index is reported as 2.46.
AQVLMPGQILELPWKEETFLVLQS [L6P] gave a protein stability index of 1.53.
For AQVLMKGQILELPWKEETFLVLQS [L6K], the protein stability index was 3.18.
Work on AQVLMSGQILELPWKEETFLVLQS [L6S] yielded a protein stability index of 2.7.
In the case of AQVLMHGQILELPWKEETFLVLQS [L6H], the protein stability index is reported as 3.74.
For AQVLMLGQILELPWAEETFLVLQS [K15A], the protein stability index was 2.06.
With AQVLMLGQILELPWDEETFLVLQS [K15D] the protein stability index was 2.01.
In the case of AQVLMLGQILELPWHEETFLVLQS [K15H], the protein stability index is reported as 3.52.
AQVLMLGQILELPWQEETFLVLQS [K15Q] gave a protein stability index of 1.47.
In the case of AQVLMLGQILELPWMEETFLVLQS [K15M], the protein stability index is reported as 2.91.
With AQVLMLGQILELPWYEETFLVLQS [K15Y] the protein stability index was 5.17.
AQVLMLGQILELPWFEETFLVLQS [K15F] showed a protein stability index of 2.52.
In the case of AQVLMLGQILELPWKEETFLVLDS [Q23D], the protein stability index is reported as 1.78.
AQVLMLGQILELPWKEETFLVLWS [Q23W] gave a protein stability index of 3.42.
With AQVLMLGQILELPWKEETFLVLKS [Q23K] the protein stability index was 3.22.
With AQVLMLGQILELPWKEETFLVLFS [Q23F] the protein stability index was 1.91.
AQVLMLGQILELPWKEETFLVLNS [Q23N] gave a protein stability index of 2.44.
With AQVLMLGQILELPWKEETFLVLVS [Q23V] the protein stability index was 2.
In the case of AQVLMLGQILELPWKEETFLVLYS [Q23Y], the protein stability index is reported as 3.54.
With AQVLMLCQILELPWKEETFLVLQS [G7C] the protein stability index was 2.25.
For AQVLMLQQILELPWKEETFLVLQS [G7Q], the protein stability index was 2.19.
Variant AQVLMLDQILELPWKEETFLVLQS [G7D] has a protein stability index of 2.12.
AQVLMLPQILELPWKEETFLVLQS [G7P] showed a protein stability index of 2.51.
With AQVLMLRQILELPWKEETFLVLQS [G7R] the protein stability index was 4.09.
Variant AQVLMLNQILELPWKEETFLVLQS [G7N] has a protein stability index of 2.85.
AQVLMLGQILELPHKEETFLVLQS [W14H] gave a protein stability index of 3.52.
For AQVLMLGQILELPPKEETFLVLQS [W14P], the protein stability index was 1.83.
AQVLMLGQILELPLKEETFLVLQS [W14L] showed a protein stability index of 2.21.
With AQVLMLGQILELPIKEETFLVLQS [W14I] the protein stability index was 2.95.
For AQVLMLGQILELPFKEETFLVLQS [W14F], the protein stability index was 2.72.
With AQVLMLGQILELPSKEETFLVLQS [W14S] the protein stability index was 3.07.
In the case of AQVLMLGQILELPWKEETGLVLQS [F19G], the protein stability index is reported as 2.11.
AQVLMLGQILELPWKEETMLVLQS [F19M] gave a protein stability index of 2.68.
AQVLMLGQILELPWKEETTLVLQS [F19T] showed a protein stability index of 1.56.
AQVLMLGQILELPWKEETDLVLQS [F19D] showed a protein stability index of 2.53.
AQVLMLGQILELPWKEETKLVLQS [F19K] showed a protein stability index of 1.53.
AQVLMLGQILELPWKEETFLVLQE [S24E] gave a protein stability index of 3.98.
With AQVLMLGQILELPWKEETFLVLQT [S24T] the protein stability index was 2.51.
With AQVLMLGQILELPWKEETFLVLQL [S24L] the protein stability index was 3.04.
In the case of AQVLMLGQILELPWKEETFLVLQR [S24R], the protein stability index is reported as 2.69.
Variant AQVLMLGQILELPWKEETFLVLQH [S24H] has a protein stability index of 2.58.
Variant AQVLMLGQILELPWKEETFLVLQI [S24I] has a protein stability index of 5.17.
For AQVLMLGQILELPWKEETFLVLQQ [S24Q], the protein stability index was 1.69.
With AQVLMLGQILELPWKEETFLVLQK [S24K] the protein stability index was 2.21.
AQVLMLGQILELPWKEETFLVLQG [S24G] showed a protein stability index of 2.41.
Variant AQVLMLGQILELPWKEETFLVLQA [S24A] has a protein stability index of 1.88.
Work on AQVLMLGQILEHPWKEETFLVLQS [L12H] yielded a protein stability index of 2.4.
Work on AQVLMLGQILEPPWKEETFLVLQS [L12P] yielded a protein stability index of 4.52.
In the case of AQVLMLGQILETPWKEETFLVLQS [L12T], the protein stability index is reported as 2.91.
In the case of AQVLMLGQILEWPWKEETFLVLQS [L12W], the protein stability index is reported as 2.1.
Work on AQVLMLGQILEYPWKEETFLVLQS [L12Y] yielded a protein stability index of 2.6.
In the case of AQVLMLGQILEEPWKEETFLVLQS [L12E], the protein stability index is reported as 2.39.
In the case of AQVLMLGQILEFPWKEETFLVLQS [L12F], the protein stability index is reported as 2.48.
For AQVLMLGQILECPWKEETFLVLQS [L12C], the protein stability index was 3.49.
AQVLMLGQILEKPWKEETFLVLQS [L12K] showed a protein stability index of 2.57.
AQVCMLGQILELPWKEETFLVLQS [L4C] gave a protein stability index of 3.01.
AQVKMLGQILELPWKEETFLVLQS [L4K] gave a protein stability index of 2.13.
